Among the data in article PMC4937444 are binding signal (% DNA retrieved) values, retold here.

The subject of this series is MukB (Escherichia coli). Briefly: pull-down (MU topological loading assay). The conditions noted are these: no ATP, 750 mM KCl wash, MU assay: low salt 25 mM KCl loading (37 °C), His-tag affinity beads, typically 7.3 pmol MukB and 100 ng DNA, SSB EMSA: HKD buffer (25 mM …).

As for pUC119 cssDNA, the binding signal (% DNA retrieved) was found to be 10.6.
The result for ldsDNA reads 0.6; that for cccDNA (pUC19/pUC119), 4.6.
